Results reported in patent US20250361297A1, “ANTI- SIGLEC-15 BINDING MOLECULES AND METHODS OF USE” (ADAPTAM THERAPEUTICS, S.L., priority 2024, published 2025).
Numbering of substitutions follows the chain as printed.

T1: recombinant human Siglec-15 protein (Homo sapiens, UniProt Q6ZMC9)
T1 construct: purchased Bonopusbio CW70-50 ug
T1 sequence (Q6ZMC9 20-263 limits assumed): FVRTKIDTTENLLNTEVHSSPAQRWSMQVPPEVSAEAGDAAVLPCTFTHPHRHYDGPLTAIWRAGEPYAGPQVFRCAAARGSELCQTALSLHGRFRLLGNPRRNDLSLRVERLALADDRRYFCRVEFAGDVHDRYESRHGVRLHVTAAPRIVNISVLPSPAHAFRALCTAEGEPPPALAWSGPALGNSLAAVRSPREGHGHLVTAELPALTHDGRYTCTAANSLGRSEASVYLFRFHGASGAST

T2: THP-1 cells overexpressing human Siglec-15 (Homo sapiens, UniProt Q6ZMC9)
T2 construct: Human full-length Siglec-15 and CD19 genes were synthesized and cloned into the pLV-MSCV lentiviral vector; His; expressed in transfected cells; host or cells: THP-1 (lentiviral overexpression, 'THP-1 S15 OE')
T2 sequence (Q6ZMC9 20-328): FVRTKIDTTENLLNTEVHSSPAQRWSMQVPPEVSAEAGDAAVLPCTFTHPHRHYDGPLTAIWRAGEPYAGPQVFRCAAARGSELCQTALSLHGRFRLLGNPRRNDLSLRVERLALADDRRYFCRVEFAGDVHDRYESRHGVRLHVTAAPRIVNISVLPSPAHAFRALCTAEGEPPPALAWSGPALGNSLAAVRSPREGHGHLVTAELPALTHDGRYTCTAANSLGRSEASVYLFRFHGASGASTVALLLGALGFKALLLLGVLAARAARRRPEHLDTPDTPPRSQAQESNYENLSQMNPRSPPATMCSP

B1: S15B1-VH1 + VL2: humanized S15B1 antibody, humanized VH1 (SEQ ID NO: 103) with humanized VL2 (antibody, V domains shown)
VH: QVQLVQSGAEVKKPGASVKVSCKASGYAFSSSWMNWVRQAPGQGLEWIGRIYPGHGETNYNGKFKDRVTMTADTSTSTVYMELSSLRSEDTAVYFCARVDNSDPYYFDYWGQGTTVTVSS
VL: DIVLTQSPASLAVSPGQRATITCRASKSVSTSGYSYMHWYQQKPGQPPKLLIYLASNLESGVPARFSGSGSGTDFTLTINPVEAEDTATYYCQHGRELPFTFGGGTKLEIK
B2: S15B1-VH4 + VL2: humanized S15B1 antibody, humanized VH4 with humanized VL2 (antibody, V domains shown)
VH: B1 VH with R38K, V68A, T74K
VL: B1 VL
B3: S15B1-VH3 + VL1: humanized S15B1 antibody, humanized VH3 with humanized VL1 (antibody, V domains shown)
VH: B1 VH with R38K, V68A
VL: B1 VL with T89N
B4: S15B1-VH1 + VL1: humanized S15B1 antibody, humanized VH1 (SEQ ID NO: 103) with humanized VL1 (antibody, V domains shown)
VH: B1 VH
VL: B1 VL with T89N
B5: S15B1-VH2 + VL2: humanized S15B1 antibody, humanized VH2 with humanized VL2 (antibody, V domains shown)
VH: B1 VH
VL: B1 VL
B6: S15B1-VH4 + VL1: humanized S15B1 antibody, humanized VH4 with humanized VL1 (antibody, V domains shown)
VH: B1 VH with R38K, V68A, T74K
VL: B1 VL with T89N
B7: S15B1-VH2 + VL1: humanized S15B1 antibody, humanized VH2 with humanized VL1 (antibody, V domains shown)
VH: B1 VH
VL: B1 VL with T89N
B8: S15B1-VH3 + VL2: humanized S15B1 antibody, humanized VH3 with humanized VL2 (antibody, V domains shown)
VH: B1 VH with R38K, V68A
VL: B1 VL
B9: ZLA-1243-E01-MMAE (conjugate)
VH: QVQLVQSGGGLVQPGRSLRLSCAASGFTFDDYAMHWVRQAPGKGLEWVSGISWNSGSIGYADSVKGRFTISRDNAKNSLYLQMNSLRAEDTALYYCAKGLWPSYDLDAFDIWGQGTMVTVSS
VL: QSALTQPASVSGSPGQSITLSCTGTSSDVGAYNFVSWYQQHPGTAPKLMIYEVSNRPSGVSDRFSGSKSGNTASLTISGLQAEDEADYYCSSYTSTIPPFVFGTGTKVTVL

Biological target: T1, recombinant human Siglec-15 protein
Assay: BIACORE surface plasmon resonance binding affinity
Conditions: SPR; antibody as ligand, human Siglec-15 as analyte; 1:1 Langmuir model
Text: Binding affinity determination of anti-Siglec-15 monoclonal antibodies using BIACORE surface plasmon resonance: The purified anti-Siglec-15 monoclonal antibodies (mAbs) were characterized for binding affinity and binding kinetics by Biacore T200 system (GE healthcare, Pittsburgh, PA, USA). Anti-Siglec-15 antibodies were covalently linked to a CM5 chip (carboxy methyl dextran coated chip, GE healthcare, Cat #BR-1005-30) via primary amines, using a standard amine coupling kit provided by Biacore (GE healthcare, Pittsburgh, PA, USA). Un-reacted moieties on the biosensor surface were blocked with ethanolamine. Then, serially diluted recombinant human Siglec-15-his protein (Bonopusbio, CW70-50 ug), 2-fold serial dilution in HBS-EP buffer starting at 80 nM, were respectively flown onto the chip at a flow rate of […]. The antigen-antibody association kinetics was followed for 2 minutes, and the dissociation kinetics was followed for 10 minutes. The association and dissociation curves were fit to a 1:1 Langmuir binding model using BIAcore evaluation software. The dissociation rate (kd) and association constant (ka) rate constants were obtained using Evaluation Software. The equilibrium dissociation constant (KD) was calculated from the ratio of kd over ka.

Molecule	ka [M⁻¹ s⁻¹]	kd [s⁻¹]
B1	3.54e+06	0.000563
B2	1.69e+06	0.000234
B3	3.73e+06	0.000257
B4	3.35e+06	0.000455
B5	3.44e+06	0.000326
B6	4.1e+06	0.000385
B7	3.8e+06	0.000473
B8	4.49e+06	0.000293

Biological target: T2, THP-1 cells overexpressing human Siglec-15
Assay: Binding of anti-Siglec-15 ADCs to THP-1 S15+ cells (flow cytometry)
Conditions: relative to Trastuzumab-based ADC negative control
Protocol: Binding of anti-Siglec-15 ADCs to THP-1 S15+ cells: 50,000 cells/well of THP-1 S15 OE cells were added to a round bottom 96 well plate, centrifuged at 450×G for 5 minutes and the supernatant discarded. Human anti-siglec-15 IgG ADCs were prepared (starting at 198 nM, 3-fold serial dilution in staining buffer) and the cells were resuspended in 100 μl of ADC. Cells were incubated for 40 minutes on ice and 100 μl of staining buffer were added to each well, followed by centrifugation at 450×G for 5 minutes and supernatants were discarded. The secondary antibody was prepared (anti-human IgG-PE at 1:500 dilution) and added 100 μl to each well. Cells were incubated for 40 minutes on ice and 100 μl of staining buffer were added to each well followed by centrifugation at 450× G for 5 minutes to then discard the supernatant. Cells were resuspended in 150 μl of staining buffer and acquired in a flow cytometer.

Molecule	binding capacity to THP-1 cells overexpressing human Siglec-15
B9	increased binding capacity
